Test results reported in PMC4081063, “The conformational state of the nucleosome entry–exit site modulates TATA box-specific TBP binding”.

Columns and labels:
[1] = target: T1, TBP (human TATA binding protein) (Homo sapiens, UniProt P20226 1-339); experiment: bulk FRET; similar to TATA-14E; stoichiometry 1.1 TBP:DNA; 20 mM Tris pH 7.9, 4 mM MgCl2, 1 mM DTT, 5% glycerol, 5-150 mM KCl as indicated, 1 nM labeled DNA (1-5 nM in Results), 20 min; 25 C (37 C tested); conditions: protein: recombinant; label: 5' ends labeled with donor and acceptor; blunt
T1 sequence (P20226 whole entry): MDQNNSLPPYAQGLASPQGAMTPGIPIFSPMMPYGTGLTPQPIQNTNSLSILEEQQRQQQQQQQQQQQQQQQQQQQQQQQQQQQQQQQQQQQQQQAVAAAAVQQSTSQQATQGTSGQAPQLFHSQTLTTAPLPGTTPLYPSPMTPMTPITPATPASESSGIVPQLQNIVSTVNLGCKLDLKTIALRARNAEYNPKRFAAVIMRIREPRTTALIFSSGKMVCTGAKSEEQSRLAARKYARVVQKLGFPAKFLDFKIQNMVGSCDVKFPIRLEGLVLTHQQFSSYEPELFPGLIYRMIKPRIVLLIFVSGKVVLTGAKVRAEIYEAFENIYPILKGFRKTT

[2] = target: T1, TBP (human TATA binding protein); experiment: bulk FRET; 5-150 mM KCl; biphasic at low salt; similar at 25 and 37 C; 20 mM Tris pH 7.9, 4 mM MgCl2, 1 mM DTT, 5% glycerol, 5-150 mM KCl as indicated, 1 nM labeled DNA (1-5 nM in Results), 20 min; 25 C (37 C tested); conditions: protein: recombinant; label: 5' donor and internal amino-dT acceptor 18 bp away, same strand; blunt
[3] = target: T1, TBP (human TATA binding protein); experiment: bulk FRET; 50 mM KCl, 4 mM Mg2+; 20 mM Tris pH 7.9, 4 mM MgCl2, 1 mM DTT, 5% glycerol, 5-150 mM KCl as indicated, 1 nM labeled DNA (1-5 nM in Results), 20 min; 25 C (37 C tested); conditions: protein: recombinant; label: 5' ends labeled with donor (Atto-488) and acceptor (Atto-633 or Atto-647N); blunt
[4] = target: T1, TBP (human TATA binding protein); experiment: bulk FRET; 150 mM KCl, 4 mM Mg2+; 20 mM Tris pH 7.9, 4 mM MgCl2, 1 mM DTT, 5% glycerol, 5-150 mM KCl as indicated, 1 nM labeled DNA (1-5 nM in Results), 20 min; 25 C (37 C tested); conditions: protein: recombinant, blunt

B1: TATA-14E* (dsDNA)
DNA 1: GGGTATAAAAGGGG
DNA 2: CCCCTTTTATACCC
B1: binds [1].

B2: TATA-18I (dsDNA)
DNA 1: TGGGGTATAAAAGGGGGTGGACACGTG
DNA 2: CACGTGTCCACCCCCTTTTATACCCCA
B2: binds [2].

B3: TATA-14E (dsDNA)
DNA 1: GGCTATAAAAGGGG
DNA 2: CCCCTTTTATAGCC
B3 showed a Kd [3] of 5 ± 1 nM and a Kd ([4]; label: 5' ends labeled with donor (Atto-488) and acceptor (Atto-633 or Atto-647N)) of 10 ± 3 nM.

B4: TATA-14I (dsDNA)
DNA 1: TGGTATAAAAGGGTGCGGACACGTG
DNA 2: CACGTGTCCGCACCCTTTTATACCA
Binder B4 has a Kd ([4]; label: 5' donor and internal amino-dT acceptor 14 bp away, same strand) of 6 ± 1 nM.
